According to US20020052481A1:
pEC50: −log10 of the molar value. Read-outs that look alike come from different tables or passages of the source.

How the values were obtained:
[1] = target: recombinant gp120 from the laboratory-adapted strain HIV-1LAI (HIV-1LAI) (UniProt P03377); test: modified ELISA, gp120 captured on plate
[2] = target: recombinant gp120 from the primary isolate HIV-1JR-FL (HIV-1JR-FL); test: modified ELISA, gp120 captured on plate
[3] = target: HIV-1JR-FL envelope glycoprotein gp120/gp41 on cells (HIV-1JR-FL)
[4] = target: HIV-1LAI envelope glycoprotein gp120/gp41 on cells (HIV-1LAI) (UniProt P03377)
[5] = target: HIV-1JR-FL envelope glycoprotein gp120/gp41 on cells (HIV-1JR-FL); remark: listed apart in the source

Substance | pEC50 [1] | pEC50 [2] | pEC50 [3] | pEC50 [4] | pEC50 [5]
CD4-IgG2 chimeric heterotetramer (Fc fusion) | 8.83 | 8.90 | – | – | –
^125I-CD4-IgG2 (Fc fusion) | 8.98 | 8.63 | 7.89 | 7.72 | 7.40 to 8.00
